According to article PMC3192196 (Angewandte Chemie (International Ed. in English), 2011):

Columns and labels:
[1] = ex vivo biodistribution, PSMA+ PC3 PIP tumor; format: in vivo, severe-combined immune-deficient (SCID) mice; conditions: SCID, mouse, PSMA+ PC3-PIP tumor
PSMA+ PC3-PIP xenografts = experiment: ex vivo biodistribution, PSMA+ PC3 PIP tumor; format: in vivo, severe-combined immune-deficient (SCID) mice; conditions: for PIP:flu uptake ratio: PSMA+ PIP to PSMA− flu tumor
[2] = tested on: PSMA+ PC3-PIP and PSMA− PC3-flu xenografts; experiment: sequential SPECT-CT and optical; format: in vivo, severe-combined immune-deficient (SCID) mice
PSMA [3] = target: T1, PSMA (Homo sapiens, UniProt Q04609); experiment: blocking of uptake with ZJ43; format: in vivo; conditions: blocking dose 50 mg/Kg ZJ43 (Figure S9)
T1 sequence (Q04609 whole entry): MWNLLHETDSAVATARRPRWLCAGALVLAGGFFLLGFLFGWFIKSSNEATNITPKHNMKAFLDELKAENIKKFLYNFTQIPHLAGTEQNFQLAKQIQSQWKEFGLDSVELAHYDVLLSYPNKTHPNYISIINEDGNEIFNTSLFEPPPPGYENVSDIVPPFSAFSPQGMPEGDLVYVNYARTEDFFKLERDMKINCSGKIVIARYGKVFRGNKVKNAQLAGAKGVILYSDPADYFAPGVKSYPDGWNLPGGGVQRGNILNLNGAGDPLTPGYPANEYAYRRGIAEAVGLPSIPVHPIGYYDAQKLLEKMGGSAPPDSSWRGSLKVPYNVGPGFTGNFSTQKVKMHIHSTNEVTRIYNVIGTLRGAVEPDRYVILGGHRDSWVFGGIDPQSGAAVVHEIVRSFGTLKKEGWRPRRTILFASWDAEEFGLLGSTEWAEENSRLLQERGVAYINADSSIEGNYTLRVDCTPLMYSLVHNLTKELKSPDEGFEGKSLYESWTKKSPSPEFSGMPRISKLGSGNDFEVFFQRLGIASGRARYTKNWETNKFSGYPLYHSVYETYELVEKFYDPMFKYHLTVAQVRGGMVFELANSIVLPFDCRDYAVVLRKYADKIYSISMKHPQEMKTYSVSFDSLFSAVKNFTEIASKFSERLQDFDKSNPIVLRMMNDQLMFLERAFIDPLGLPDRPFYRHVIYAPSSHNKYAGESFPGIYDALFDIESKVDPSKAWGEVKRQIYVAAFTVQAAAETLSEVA

[4] = ex vivo biodistribution, normal tissues; conditions: for tissue uptake at 1 h / tissue uptake at 2 h / tissue uptake at 5 h / tissue uptake at 24 h: SCID, mouse
in vivo = conditions: SCID, mouse, PSMA− PC3-flu tumor
[5] = electronic absorption and fluorescence spectroscopy; format: physicochemical; conditions: for emission maximum / fluorescence lifetime: aqueous solution; for extinction coefficient: at absorbance maximum 776 nm; for absorbance maximum: electronic spectra; for quantum yield: in PBS
PSMA [6] = target: T1, PSMA; experiment: fluorescence-based PSMA inhibition assay; format: biochemical

CC1(C)C(=CC=C2CCCC(C=CC3=[N+](CCCCS(=O)(=O)O)c4ccc(S(=O)(=O)[O-])cc4C3(C)C)=C2Oc2ccc(S(=O)(=O)O)cc2)N(CCCCCC(=O)NCCCC[C@H](NC(=O)CN2CCN(CC(=O)O)CCN(CC(=O)O)CCN(CC(=O)O)CC2)C(=O)N[C@@H](CCCCNC(=O)CCCCCCC(=O)NCCCC[C@H](NC(=O)N[C@@H](CCC(=O)O)C(=O)O)C(=O)O)C(=O)O)c2ccc(S(=O)(=O)O)cc21 (single isomer, unassigned) [[^111In]1, metal not drawn]
tissue uptake at 1 h [1]: 13.9 ± 1.9 %ID/g
tissue uptake at 2 h [1]: 13.3 ± 2.4 %ID/g
tissue uptake at 5 h [1]: 16.4 ± 3.7 %ID/g
tissue uptake at 24 h [1]: 14.6 ± 1.3 %ID/g
PIP:flu uptake ratio (PSMA+ PC3-PIP xenografts; 1h): 6.7
PIP:flu uptake ratio (PSMA+ PC3-PIP xenografts; 2h): 6.3
PIP:flu uptake ratio (PSMA+ PC3-PIP xenografts; 5h): 8.7
PIP:flu uptake ratio (PSMA+ PC3-PIP xenografts; 24h): 7.4
binding and accumulation in PSMA+ PC3-PIP xenografts, in words (PSMA+ PC3-PIP xenografts; biodistribution, up to 24 h): PSMA dependent binding in PSMA+ PC3-PIP xenografts with rapid accumulation at the tumor site that persisted throughout the course of the experiment
radiotracer uptake on in vivo imaging ([2]; 37 MBq IV, imaged repeatedly over two days): Intense radiotracer uptake was seen only in the PSMA+ PIP tumors and in the kidneys
tumor visualization by NIRF imaging ([2]; single injection of ~0.22 μg (0.1 nmol)): able to visualize tumor with NIRF imaging
blocking of uptake in PSMA+ PC3 PIP tumor and kidney by ZJ43 (PSMA [3]): effective blocking in PSMA+ PC3 PIP tumor and kidney
tissues with highest uptake at 1 h ([4]; 1 h): The blood, spleen, gastrointestinal tract, kidney and bladder displayed the highest uptake at 1 h
kidney clearance, in words ([4]; 1 h to 24 h): Steady clearance from the kidneys
tissue uptake at 1 h ([4]; bladder): 4.1 ± 1.7 %ID/g
tissue uptake at 2 h ([4]; bladder): 2.7 ± 1 %ID/g
tissue uptake at 5 h ([4]; bladder): 1.1 ± 0.6 %ID/g
tissue uptake at 24 h ([4]; bladder): 2 ± 0.5 %ID/g
tissue uptake at 1 h ([4]; blood): 9.9 ± 5 %ID/g
tissue uptake at 2 h ([4]; blood): 7.1 ± 1.2 %ID/g
tissue uptake at 5 h ([4]; blood): 4.1 ± 0.8 %ID/g
tissue uptake at 24 h ([4]; blood): 0.9 %ID/g
tissue uptake at 1 h ([4]; heart): 3.3 ± 0.5 %ID/g
tissue uptake at 2 h ([4]; heart): 1.8 ± 0.3 %ID/g
tissue uptake at 5 h ([4]; heart): 1.8 ± 0.1 %ID/g
tissue uptake at 24 h ([4]; heart): 0.8 ± 0.1 %ID/g
tissue uptake at 1 h ([4]; kidney): 104 ± 9.4 %ID/g
tissue uptake at 2 h ([4]; kidney): 97.1 ± 13 %ID/g
tissue uptake at 5 h ([4]; kidney): 122 ± 21.6 %ID/g
tissue uptake at 24 h ([4]; kidney): 48.1 ± 17.7 %ID/g
tissue uptake at 1 h ([4]; large intestine): 1.5 ± 0.5 %ID/g
tissue uptake at 2 h ([4]; large intestine): 1.3 ± 0.3 %ID/g
tissue uptake at 5 h ([4]; large intestine): 0.8 ± 0.5 %ID/g
tissue uptake at 24 h ([4]; large intestine): 2 ± 0.4 %ID/g
tissue uptake at 1 h ([4]; liver): 2.4 ± 0.1 %ID/g
tissue uptake at 2 h ([4]; liver): 2.2 %ID/g
tissue uptake at 5 h ([4]; liver): 3.2 ± 1.2 %ID/g
tissue uptake at 24 h ([4]; liver): 3.1 ± 0.4 %ID/g
tissue uptake at 1 h ([4]; muscle): 1.2 ± 0.6 %ID/g
tissue uptake at 2 h ([4]; muscle): 0.7 ± 0.2 %ID/g
tissue uptake at 5 h ([4]; muscle): 0.9 ± 0.2 %ID/g
tissue uptake at 24 h ([4]; muscle): 0.4 %ID/g
tissue uptake at 1 h ([4]; pancreas): 2.1 ± 0.1 %ID/g
tissue uptake at 2 h ([4]; pancreas): 1.3 ± 0.3 %ID/g
tissue uptake at 5 h ([4]; pancreas): 2 ± 1 %ID/g
tissue uptake at 24 h ([4]; pancreas): 1 ± 0.3 %ID/g
tissue uptake at 1 h ([4]; small intestine): 1.8 ± 0.5 %ID/g
tissue uptake at 2 h ([4]; small intestine): 1.5 ± 0.2 %ID/g
tissue uptake at 5 h ([4]; small intestine): 1.6 ± 0.3 %ID/g
tissue uptake at 24 h ([4]; small intestine): 2 ± 0.7 %ID/g
tissue uptake at 1 h ([4]; spleen): 11.3 ± 3.7 %ID/g
tissue uptake at 2 h ([4]; spleen): 6.8 ± 0.9 %ID/g
tissue uptake at 5 h ([4]; spleen): 4.8 ± 2.4 %ID/g
tissue uptake at 24 h ([4]; spleen): 8.2 ± 5.4 %ID/g
tissue uptake at 1 h ([4]; stomach): 1.4 ± 0.3 %ID/g
tissue uptake at 2 h ([4]; stomach): 1.2 ± 0.1 %ID/g
tissue uptake at 5 h ([4]; stomach): 2.4 ± 1.8 %ID/g
tissue uptake at 24 h ([4]; stomach): 1 ± 0.1 %ID/g
tissue uptake at 1 h (in vivo): 2.1 ± 0.7 %ID/g
tissue uptake at 2 h (in vivo): 2.1 ± 0.5 %ID/g
tissue uptake at 5 h (in vivo): 1.9 ± 0.2 %ID/g
tissue uptake at 24 h (in vivo): 2 ± 0.2 %ID/g

CC1(C)C(=CC=C2CCCC(C=CC3=[N+](CCCCS(=O)(=O)O)c4ccc(S(=O)(=O)[O-])cc4C3(C)C)=C2Oc2ccc(S(=O)(=O)O)cc2)N(CCCCCC(=O)NCCCC[C@H](NC(=O)CN2CCN(CC(=O)O)CCN(CC(=O)O)CCN(CC(=O)O)CC2)C(=O)N[C@@H](CCCCNC(=O)CCCCCCC(=O)NCCCC[C@H](NC(=O)N[C@@H](CCC(=O)O)C(=O)O)C(=O)O)C(=O)O)c2ccc(S(=O)(=O)O)cc21 (single isomer, unassigned) [Compound 1]
emission maximum [5]: 792 nm
fluorescence lifetime [5]: 420 psec
extinction coefficient [5]: 181,000 M^−1cm^−1
absorbance maximum [5]: 776 nm
quantum yield [5]: ~ 8.9%
PSMA inhibition, in words (PSMA [6]): potent inhibitors of PSMA

CC1(C)C(=CC=C2CCCC(C=CC3=[N+](CCCCS(=O)(=O)O)c4ccc(S(=O)(=O)[O-])cc4C3(C)C)=C2Oc2ccc(S(=O)(=O)O)cc2)N(CCCCCC(=O)NCCCC[C@H](NC(=O)CN2CCN(CC(=O)O)CCN(CC(=O)O)CCN(CC(=O)O)CC2)C(=O)N[C@@H](CCCCNC(=O)CCCCCCC(=O)NCCCC[C@H](NC(=O)N[C@@H](CCC(=O)O)C(=O)O)C(=O)O)C(=O)O)c2ccc(S(=O)(=O)O)cc21 (single isomer, unassigned) [[^113/^115In]1]
emission maximum [5]: 792 nm
fluorescence lifetime [5]: 483 psec
extinction coefficient [5]: 181,000 M^−1cm^−1
spectral properties of 1 versus [^113/^115In]1, in words ([5]; comparison of 1 and [^113/^115In]1): did not observe any significant changes in the spectral properties
absorbance maximum [5]: 776 nm
quantum yield [5]: ~ 8.9%
PSMA inhibition, in words (PSMA [6]): potent inhibitors of PSMA
